Source: the domain aggregation screens of Martell et al. (2025)

Assay: soluble fraction after stress (log2 fold change); higher = more stays soluble; pooled small domains, quantitative proteomics
Conditions: stress: 50 degC
Summary of the method: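 Quantitative proteomics served as the high-throughput read-out for pooled custom libraries of small protein domains. Each was stressed at 50°C. Aggregation propensity is expressed as the base-two log fold change in soluble protein after stress. A higher value means a larger share of the protein remains in solution.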

Row | Sequence | soluble fraction (log2)
1 | HMELEENTERVLNILIENDIISENDIAEKLEVKINGARKALYKLKEVGFVEYTKERDEEKKWWYIYFWKLN | -0.0109
2 | HMKDEGSLKVIGQMVVIGIPQSEAKRFANTYTVAQIRAALQYTQKRSEDKNASKLENVAAYFRQALVRNWG | -1.36
3 | HMPVRIYEISKKLGLENKEVLATAKSLGIAAAKVPSSSLDKITAEYLEEEILKSHPEVAARLK | 0.329
4 | HMKAPDSQYKPLTDFQTDASFQKLDAYLRNRYPAMLANAVVYDVLRTPDAISYRVNYQVDNKMITINAAVT | -0.126
5 | HMTKAILTANDVRNGDIVFWTADQRWSTSIDDAAIGYGKDDTDQLADAGKQAEAANTVVGAYLIALR | -0.276
6 | HMSTSRAEIIAFLKSNPSSEYKHELETKLDEMDWAEAVKGNSEESFLAYKQRQPNGTHNGEADEKLKVLLV | 0.191
7 | HMDRMINYSPIVAKVPQDDYTTKVYNIPIYSELTVVDKISEPEPLIAPIYRFKYITPEDEEIEFDIPV | 0.0278
8 | HMISADSSKVDTLVQVYSNMKPIQAAQVFEKMDEDLVIEILSRMKKKNAADILNLIKTEKAQVFAEKYA | 0.0124
9 | HMRNTPQRRHAILALLSEQGEVSVDALAKRFSTSEVTIRKDLAAMESHGLLLRRYGGAVPMPQELI | -0.928
10 | HMALQDKYKELTDAATAAGVTDLQVREQDNVLYIDGTAPSGAVKDQLWAIYDKIDPNFVSGDLVLNVNVD | 0.0655
11 | HMGATFITSSKDNAINIRQAAGTDSKVIETIKNGHILESSEKSGEWYKVTYYDSDIKKTFTGYIHNSQLK | 0.159
12 | HMDLMQRVIIVRPVMQGDYLTRAHLGLQTLSRNGGGGFTDIDDLVGRRAKKSLRAGLVVHNRHL | -0.694
13 | HMKTGTTGLIGEIGVVKKALTPEGKVFVHGELWRAVSKTASPEGTLVQVIKINNLVLEVEKV | -1.47
14 | HMENVVESIYNKMVESITNGQWAAGSKIPTENELAKTYQVSRSSVRQAISRLKALGLLESRQGSGTVIKK | 0.272
15 | HMSDIISEIESQVMFKLATYEITNATEKMIEALINSEINDRRTLGFPIPNEQGRIFLVRSIQNKLAV | -1.05
16 | HMDVQEILGALSPDEKAAIGQLTSGEKHIDQIIAATRLPAARITSALTLLQIKGYVRALPGKRFSLTEKQ | -0.0961
17 | HMVRSKLEIVPVPEDAVVKIAGLKRLTYQAYQNEDVPYMVYKNGYEAQSGTVFMDTDKTLTVTLEESP | -0.0311
18 | HMNMMESNLFAVYDNDDIVKTLRQGAMEIDSLIRLMGKSSAEVLEKLTTMELQGIITRSGNIIALNN | -0.064
19 | HMHKIRRQTKITKSLLDQIEGIGSSRKKALLNHFGSAKAVGEAGETDLGTVKGISNSLAKKIYDFFHAT | -0.281
20 | HMNPGNTESFPVYQKRLGEIIQTLAGKKGQDINSPEVKELVGEYDFLTKQMFQLPDATSMVMEIATAYRN | 0.0462
21 | HMRRRTLRQGATGSDVHAVQRLLNVDGAGLRTDGIFGPATERAVIAYQRKHGLAVDGVVGRETWTALLG | -0.61
22 | HMTEISGIEKFLASGAINGIGPAMAKKIVAEFGEKTLEIIAKSPNELLKVPGIGKKTAEKISTSYLEQ | -0.0669
23 | HMRPEVALSSRELEILEALATGKSNKELAQRLFISEATVKTHLIHIYQKLGVDTRTAAVTVARERKL | -1.52
24 | HMYPATGTVVTAGGHLNMRSEPDRSGAILARIPNGTALTLTGKNGDWYAATYAGRSGYVSAQYISLS | -0.0468
25 | HMSLTPSQDANRSAILDAARDLFARYGFKKTTMEDIAMALRKGKSSLYYYFKNKEDIFQAVIDS | -1.35

Row | Sequence | soluble fraction (log2)
26 | HMTPESSLHSGLGKILHDALTAKIQLTNFEAKFLSDMQSKYDLNGSFSWLSSKQQTTLEKILAKYGR | -0.841
27 | HMIMHLNQIIRNKRLAAGLTQEALAQKVGVTAPAVSKWEKGISYPDITLLPILARNLNTDVNTLLDFSA | -0.641
28 | HMRARTLSTTGGESLLTLAESLYPDDDRARARFIEATAAANPKLFADIAALTRVLPAGTTLRMPDLRA | 0.0417
29 | HMDIRMLLSDREEEIMILLSKGLSISEAANRMQIGQASAATYLNRARRKLKAETVRQAVAIWTGD | -1.75
30 | HMMNNKEIGTRIAVLRKGMGDSQAKLAERLDVSPQAVSKWETGQSLPDIGNLLKLSWLFRTSINHILEGS | -1.37
31 | HMITDSSEIEAMVDALVKENPGQAEQYKDGNMKVAGWFIGQIMKVSKGKANPQLVGDLLKKKLG | 0.353
32 | HMGPEAFPVPYVVDIELDRAIYVIEQSGFIVGQKLEANDNNVPRGFVISQNPPAGTKLGPESIVDLVVSS | -0.519
33 | HMRIGINDRIHEIVDVLRLKKSTPFEDLFSGLVTRFDLVITFLALLEMGKLRLLRLYQTDPLAPLHVEYTG | -0.152
34 | HMGNLEENFRLKAGTEDGAWEFIRYHLGKLPVVNESNGTAIVNAERQAFLLFDRMVAFHIQRGVMVPLSAP | 0.0891
35 | HMDAISYTQFMEEAKQGRINKVEVQGRTLMVTPTDGKAYSLTSPGDLWMTTDLMKYGVNVYGAE | -0.00324
36 | HMIGRIKGQLIEKKSDSVVIDVHGIGYVVYVTEKTARSLTLGDQSRDISLYSELLVKEDLLQLVGFI | 0.0137
37 | HMFEDEYLETMYAFYETDPQALVRTGDLASSLKVSPASATEMVQRLASKGFVDYIPYKGASLTELGLAM | -0.184
38 | HMIMTIYEYIARNNPTGAKRVIESFGYVVTQPKKMGDNLRMLVAQEGEPALKAVVDLHPDKDLILEV | -2.87
39 | HMIGGEDEILKVVLEVLEEKPEAIEQYKNGRTNIVDFLVGQVMKKTRGQANPATTREFMIREIEK | 0.0588
40 | HMSNVIYFNYNDYKFLFMGDAGVDKETDILEKYTLSNIDFLKVGHHGSDTSSNKGFIDSIQPKYSLIS | -1.07
41 | HMGAKEHLAGETLRMAVELLSEKQGIPAEQALIRFISSPVYDALYDLDTGMWTQGPTRLLEAFEALE | -1.7
42 | HMDNEIEQIVEDLNLTLSSLKYTKNQIESILPLIIKEIDDFKKKEKNISFENLLKLAMNHLDND | -0.269
43 | HMPNNNDIVLDRVSFGYHEKEVLHGIDMTIREGTVNALVGPSGSGKSTIAKLIAGLWDVDGGSISF | 0.154
44 | HMETEAGIKAYLSSSMIKGIGPVTAQRIVERFGKRTLYVLDQMPEKLLDISGISEAKLEEILNGYRKS | -0.24
45 | HMENLSGNDIKYLRKKYNLTQKELADALGLQKFGDRTIRRWEAEETHPSKLEQSSIQSFFNSLK | 0.0091
46 | HMKKAMIISTKRGTPAAELDKIIREFEAKGLSVTMIRGTDYNVFGLVGDTTVIDEKQVRANPYVENVQRV | 0.135
47 | HMKLVTIPNVIGKTKEDAMKTLKDLGVTVTVETKESEKDDGTVIAQSKAEGTKLTAGENVTITVSKKKK | 0.139
48 | HMLRVVSTRQAFDIVRGWADAHPQDPEHNKTLDELEELAKKEVWDDWSRTNEIAERLNALLVSIGANVRTA | -0.742
49 | HMDNPNVMAQVKSLLASKGLSEQEVKERLKAKGLNIDAMSDAEIAQNRSVIEQTIAELEAEKKKAG | -0.128
50 | HMQGVTVPDLTRVSLEEAVATISSLGLRYEISDRRSNAAFPANYVLDQAPGANTIVKPNRKVYLTVNAA | 0.35

Row | Sequence | soluble fraction (log2)
51 | HMTAIKAGDLVKITGTKYYGGQTIPGWVKNQNWYVQEVSGDRAVINKNESGTNAIMSPIRVSDLTPVS | 0.183
52 | HMSLPALALRQADSLAFKQVIYHDRVVPFNTLARDFVLKLTGKPSYGGMTPEQVVGGWLLRPEVWQNEPM | -0.0387
53 | HMPKIPRLTLTETAGIMGVSQRALALAIQQGMYSWAQALPGRNKKRPIYFINAITFAKAQGIDLEEYK | -1.11
54 | HMAANKIDEDRNTELLQVIQNKFPDADAATKKSVKEIMKEHDIPNFKNADDIPTAVLEQIVKVLNQ | 0.323
55 | HMATSLTEQEKLIFGLLKKQSPIELSSLKEQAGLSNKKWDKAIKGLSTQQLAKVTKTENGLFVHLLQ | 0.148
56 | HMGFAPEAAREEVAQLIGQRGRAVTVLRPSGQVEIAGRRFEATVEVGAVDAGDTIVVRGQTAFALLVEKAD | 0.0301
57 | HMVDSTDLIPLLIKVSREKQGNKKLNWGEWLKIPENIYLKQINENIARKVFEDTNDLIDEAVNYINRKRRN | -0.602
58 | HMLDPVLQREKDESFTDYHIRLFKNKDTYHIDTKTIATLLNKDQGTNYDESKWRKDFKQYERWNDYIMSKN | 0.145
59 | HMYLQKGISNGKVYLSIVHGYRDPVTKKVRRKTIRSLGYLEDLEKQYADPIKHFEAVVAKMNEEEALE | -0.517
60 | HMVDFVNVVVPVKANYGGEAVVEFLDERLSEFGTEGIYRIELQGETMENPSPDYSQLKAKYHISEIVDRT | 0.08
61 | HMVLQHHTATKALSYHTSASASAAVKGSFARGDSVQVVQGGSQTADGAKWHKVKVGSSYYYAAAEHLTP | ≥ 0.62
62 | HMSFPLKRGSKGNRVTQLQNALVKKFGASILPKYGVDGMFGKEVEAALVRAKLPTSINESTYNSFV | 0.12
63 | HMEIDDPWLILGINAGSSIEIAQKAWKDLASQNHPDKLIANGVPKELLGMANEKLAIINGAYDKILKAHKI | -0.262
64 | HMLIPTISVTKEGQLRFENIPVSWEELGTRLRDVSDLDKIKIYADAESDALTISEIMKTAANVGIVQFVLV | -0.578
65 | HMEPEVEITYFKPDERKAGGAYVTVTGAVIKVDDFERLITMQDGTKIPMDDILSIDGELFLS | -0.333
66 | HMLAVEKIEFVGNERIAAADLESALSALYDRPMTTISDDEIAKLLSGFSLIETFTSQAEPPHTLRVNIRE | -0.141
67 | HMLTYPEHVRLRMIELRKTRSLSQSEFGTYLGLSYQTISSLELGRHEWSLAHIQTALLRFELPPNYF | -4.92
68 | HMKADIEQVQRAFDTLDPKNQQLVLDAMKAATAELDPNSDQFKTNTEFINDNQKALDRHAKAS | 0.125
69 | HMAQSLAQKINNYILTNRSSIANVAKSIGYSRTTVSRYLAGKYDSDPTDLENKLAEFLAHETGE | 0.076
70 | HMRAPIGFRISNRRKSLKISQVALARLVGISPSYLNLIENNKRDVGGALLQRVALHLNIDIDDL | -3.02
71 | HMRMSRSARLFDLLHILRSHRRAVSGQALAQQLGISIRTLYRDIASLQAQGAKIEGEPGVGYMLKP | -0.947
72 | HMTKIAFPQMLNKYRLQKNLTMEQLAEEVGKTKSTISKWEAGTRSPKIYEIEEIAKYFGVEPQTMMF | -0.453
73 | HMEIPMRDKLKTYIDYLFAGAPQTAATAETKAEILQNTLDKYDDLIAEGKTPEAAYSLAVSGIGDLGDF | -0.0827
74 | HMSAAELFEERQRQYLRGRKSTKNIADNHGTIILRAGETITDQAIDKAKVAGKLVELVMNNE | 0.142
75 | HMSRKERERSQHRRDILAAGEKIFAQKGYFNATIEEIAREAEFSVGTIYNFFSNKETLYQEIIRSI | -0.298
